Reference: US20220273789A1
Where two headings read alike, the source gives them in different places.

Experiments:
[1] = target: human IgG (human); assay: BLI (Octet), gEgI on Ni-NTA sensor, hIgG in solution
[2] = target: human IgG (human); assay: BLI Octet, construct on Ni-NTA sensor, hIgG in solution
[3] = target: human IgG (human); assay: BLI (Octet), gEgI on Ni-NTA sensor, hIgG in solution; remark: listed apart in the source
[4] = target: Recombinant HSV2 gEgI protein (coating antigen of the competitive ELISA, produced in ExpiHEK293F) (HSV2 strain SD90e) (UniProt P89475); assay: ED50 of the competitive ELISA (competitor: human IgG); GM of N=4 mice, 14PIII (D42); 5 is the value given to negative samples (first dilution/2), below the positivity threshold (1/10)
[5] = target: Recombinant HSV1 gEgI protein (coating antigen of the competitive ELISA, produced in ExpiCHO) (HSV1 strain KOS321; HSV1 strain 17); assay: as above
[6] = target: Recombinant HSV2 gEgI protein (coating antigen of the competitive ELISA, produced in ExpiHEK293F) (HSV2 strain SD90e) (UniProt P89475); assay: ED50 of the competitive ELISA (competitor: human IgG); GM of N=4 mice, 21PIII (D63); bar below the positivity threshold (1/10), 5 being the first dilution/2
[7] = target: Recombinant HSV1 gEgI protein (coating antigen of the competitive ELISA, produced in ExpiCHO) (HSV1 strain KOS321; HSV1 strain 17); assay: ED50 of the competitive ELISA (competitor: human IgG); GM of N=5 mice, 21PII (D49); 5 is the value given to negative samples (first dilution/2), below the positivity threshold (1/10)
[8] = target: human IgG (human); assay: BLI (Octet), His-tagged gEgI immobilised on Ni-NTA sensor, response to human IgG

| Substance | Kd [1] | Response [1] | Kd [2] | Response (nm) [2] | koff [2] | kon [2] | hIgG binding response [8] | also measured |
| --- | --- | --- | --- | --- | --- | --- | --- | --- |
| HSV2-gE_H245A R320D_gI (from UniProt P89475 21-416; P06764 21-256) (receptor) | 6.42 µM | 0.116 nm | 6.42 µM | 0.116 nm | 0.00704 s⁻¹ | 1100 M⁻¹ s⁻¹ |  |  |
| HSV2-gE_H245A R320G_gI (from UniProt P89475 21-416; P06764 21-256) (receptor) | 1.41 µM | 0.192 nm | 1.41 µM | 0.192 nm | 0.00589 s⁻¹ | 4190 M⁻¹ s⁻¹ |  |  |
| HSV2-gE_H245A R320T_gI (from UniProt P89475 21-416; P06764 21-256) (receptor) | 1.16 µM | 0.23 nm | 1.16 µM | 0.23 nm | 0.00537 s⁻¹ | 4620 M⁻¹ s⁻¹ |  |  |
| HSV2-gE_H245D_gI (from UniProt P89475 21-416; P06764 21-256) (receptor) | 17 µM | 0.133 nm | 17 µM | 0.133 nm | 0.00772 s⁻¹ | 453 M⁻¹ s⁻¹ |  |  |
| HSV2-gE_H245E_gI (from UniProt P89475 21-416; P06764 21-256) (receptor) | 11.9 µM | 0.168 nm | 11.9 µM | 0.168 nm | 0.00705 s⁻¹ | 595 M⁻¹ s⁻¹ |  |  |
| HSV2-gE_H245G R320D_gI (from UniProt P89475 21-416; P06764 21-256) (receptor) | 14.2 µM | 0.0927 nm | 14.2 µM | 0.0927 nm | 0.00667 s⁻¹ | 469 M⁻¹ s⁻¹ |  |  |
| HSV2-gE_H245G R320G_gI (from UniProt P89475 21-416; P06764 21-256) (receptor) | 0.777 µM | 0.225 nm | 0.777 µM | 0.225 nm | 0.00407 s⁻¹ | 5240 M⁻¹ s⁻¹ |  |  |
| HSV2-gE_H245S R320D_gI (from UniProt P89475 21-416; P06764 21-256) (receptor) | 1.74 µM | 0.121 nm | 1.74 µM | 0.121 nm | 0.00468 s⁻¹ | 2690 M⁻¹ s⁻¹ |  |  |
| HSV2-gE_H245S R320G_gI (from UniProt P89475 21-416; P06764 21-256) (receptor) | 0.745 µM | 0.196 nm | 0.745 µM | 0.196 nm | 0.0039 s⁻¹ | 5240 M⁻¹ s⁻¹ |  |  |
| HSV2-gE_H245S R320T_gI (from UniProt P89475 21-416; P06764 21-256) (receptor) | 0.718 µM | 0.205 nm | 0.718 µM | 0.205 nm | 0.00503 s⁻¹ | 7000 M⁻¹ s⁻¹ |  |  |
| HSV2-gE_P318I_gI (from UniProt P89475 21-416; P06764 21-256) (receptor) | 4.44 µM | 0.163 nm | 4.44 µM | 0.163 nm | 0.00752 s⁻¹ | 1690 M⁻¹ s⁻¹ |  |  |
| HSV2-gE_P318R S338G_gI (from UniProt P89475 21-416; P06764 21-256) (receptor) | 1e-06 µM |  |  |  |  |  |  | Kd [3]: < 1 pM; Response [3]: 0.177 nm; koff [3]: < 1e-07 s⁻¹; kon [3]: 8690 M⁻¹ s⁻¹ |
| HSV2-gE_R320E_gI (from UniProt P89475 21-416; P06764 21-256) (receptor) | 4.95 µM | 0.223 nm | 4.95 µM | 0.223 nm | 0.00455 s⁻¹ | 919 M⁻¹ s⁻¹ |  |  |
| HSV2-gE_V340D_gI (from UniProt P89475 21-416; P06764 21-256) (receptor) | 1e-06 µM | 0.115 nm | < 1e-06 µM | 0.115 nm | < 1e-07 s⁻¹ | 5330 M⁻¹ s⁻¹ |  |  |
| HSV2-gE_V340F_gI (from UniProt P89475 21-416; P06764 21-256) (receptor) | 1e-06 µM | 0.114 nm | < 1e-06 µM | 0.114 nm | < 1e-07 s⁻¹ | 3140 M⁻¹ s⁻¹ |  |  |
| HSV2-gE_V340W_gI (from UniProt P89475 21-416; P06764 21-256) (receptor) | 1e-06 µM | 0.0751 nm | < 1e-06 µM | 0.0751 nm | < 1e-07 s⁻¹ | 3520 M⁻¹ s⁻¹ |  |  |
| NaCl150mM |  |  |  |  |  |  |  | ED50 titer (geometric mean) (reciprocal dilution) [4]: 5; ED50 (geometric mean) (reciprocal dilution) [5]: 5; ED50 titer (geometric mean) (reciprocal dilution) [6]: 5; ED50 titer (geometric mean) (reciprocal dilution) [7]: 5 |
| PN90 (HSV2-gE_gI) (from UniProt P89475 21-416; P06764 21-256) (receptor) |  |  |  |  |  |  | 0.623 nm |  |
| PN91 (HSV2-gE_P317R-P319D_gI) (from UniProt P89475 21-416; P06764 21-256) (receptor) |  |  |  |  |  |  | 0.0658 nm |  |
| PN92 (HSV2-gE_P317R-R320D_gI) (from UniProt P89475 21-416; P06764 21-256) (receptor) |  |  |  |  |  |  | 0.056 nm |  |
| PN93 (HSV2-gE_P319D-R320D_gI) (from UniProt P89475 21-416; P06764 21-256) (receptor) |  |  |  |  |  |  | 0.0658 nm |  |
| PN94 (HSV2-gE_Δ319-320_gI) (from UniProt P89475 21-416; P06764 21-256) (receptor) |  |  |  |  |  |  | 0.115 nm |  |
| PN95 (HSV2-gE_P317G-P318G_Δ319-320_gI) (from UniProt P89475 21-416; P06764 21-256) (receptor) |  |  |  |  |  |  | 0.0748 nm |  |
| PN96 (HSV2-gE_P318E_Δ319-320_gI) (from UniProt P89475 21-416; P06764 21-256) (receptor) |  |  |  |  |  |  | 0.0619 nm |  |
| PN97 (HSV2-gE_P318G_Δ319-320_gI) (from UniProt P89475 21-416; P06764 21-256) (receptor) |  |  |  |  |  |  | 0.146 nm |  |
| PN98 (HSV2-gE_P318K_Δ319-320_gI) (from UniProt P89475 21-416; P06764 21-256) (receptor) |  |  |  |  |  |  | 0.135 nm |  |
| PN99 (HSV2-gE_P317R-P318E_Δ319-320_gI) (from UniProt P89475 21-416; P06764 21-256) (receptor) |  |  |  |  |  |  | 0.0795 nm |  |
| PN100 (HSV2-gE_P317R-P318G_Δ319-320_gI) (from UniProt P89475 21-416; P06764 21-256) (receptor) |  |  |  |  |  |  | 0.0877 nm |  |
| PN101 (HSV2-gE_P317G-P318K_Δ319-320_gI) (from UniProt P89475 21-416; P06764 21-256) (receptor) |  |  |  |  |  |  | 0.0868 nm |  |
